# Measurements as given in the supplement of paper PMC9112550, “Optimization of the antimicrobial peptide Bac7 by deep mutational scanning” (BMC Biology, 2022).
# Test system: Escherichia coli TOP10
# Experiment: shrunken log2 fold change of peptide-encoding DNA abundance (4.5 h post-induction vs induction); higher = less antimicrobial activity (less host growth inhibition)
# Conditions: time post-induction: 4.5 h; library: site-saturation at positions 5, 18, 19, 20
# 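Also: peptides expressed intracellularly from a pBAD plasmid library in pooled LB shake-flask culture, induced with 0.3% L-arabinose, DNA abundance read by NGS, three biological replicates, DESeq2 with apeglm shrinkage.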
row,Sequence,shrunken log2 fold change
1,RRIRGRPPRLPRPRPRPFWDPRP,0.322
2,RRIRTRPPRLPRPRPRPLGVPRP,-0.194
3,RRIRFRPPRLPRPRPRPCMYPRP,-0.418
4,RRIRNRPPRLPRPRPRPGVMPRP,-0.141
5,RRIRSRPPRLPRPRPRPIQPPRP,0.117
6,RRIRTRPPRLPRPRPRPRIHPRP,0.0773
7,RRIRCRPPRLPRPRPRPLDYPRP,-0.75
8,RRIRCRPPRLPRPRPRPNCQPRP,-0.134
9,RRIRRRPPRLPRPRPRPNDNPRP,-0.301
10,RRIRRRPPRLPRPRPRPIYNPRP,-0.246
11,RRIRNRPPRLPRPRPRPTFYPRP,-0.376
12,RRIRDRPPRLPRPRPRPWGGPRP,0.422
13,RRIRPRPPRLPRPRPRPYGFPRP,-0.426
14,RRIRMRPPRLPRPRPRPFMPPRP,-0.127
15,RRIRHRPPRLPRPRPRPFTVPRP,-0.0532
16,RRIRERPPRLPRPRPRPWSCPRP,-0.11
17,RRIRVRPPRLPRPRPRPYVAPRP,-0.643
18,RRIRGRPPRLPRPRPRPSRVPRP,0.61
19,RRIRYRPPRLPRPRPRPLVCPRP,-0.325
20,RRIRMRPPRLPRPRPRPISFPRP,-0.496
21,RRIRQRPPRLPRPRPRPNRCPRP,-0.0278
22,RRIRVRPPRLPRPRPRPARPPRP,0.486
23,RRIRQRPPRLPRPRPRPEVIPRP,-0.00663
24,RRIRERPPRLPRPRPRPWLVPRP,-0.436
25,RRIRERPPRLPRPRPRPLQQPRP,0.0643

row,Sequence,shrunken log2 fold change
1,RRIRARPPRLPRPRPRPVYWPRP,0.141
2,RRIRGRPPRLPRPRPRPYRFPRP,0.0893
3,RRIRFRPPRLPRPRPRPMQCPRP,0.188
4,RRIRCRPPRLPRPRPRPPPGPRP,1.47
5,RRIRKRPPRLPRPRPRPWPTPRP,0.103
6,RRIRARPPRLPRPRPRPGIVPRP,0.174
7,RRIRCRPPRLPRPRPRPLKAPRP,-0.249
8,RRIRVRPPRLPRPRPRPPDMPRP,-0.239
9,RRIRHRPPRLPRPRPRPILMPRP,-0.00291
10,RRIRVRPPRLPRPRPRPMVTPRP,-0.043
11,RRIRPRPPRLPRPRPRPHMMPRP,-0.19
12,RRIRERPPRLPRPRPRPIPKPRP,0.65
13,RRIRQRPPRLPRPRPRPQMNPRP,-0.72
14,RRIRYRPPRLPRPRPRPPRPPRP,0.637
15,RRIRQRPPRLPRPRPRPLDVPRP,-0.0496
16,RRIRRRPPRLPRPRPRPSMHPRP,0.324
17,RRIRSRPPRLPRPRPRPKCCPRP,-0.0585
18,RRIRMRPPRLPRPRPRPHAFPRP,0.179
19,RRIRYRPPRLPRPRPRPDNSPRP,-0.779
20,RRIRPRPPRLPRPRPRPCGSPRP,-0.023
21,RRIRWRPPRLPRPRPRPKMHPRP,0.386
22,RRIRFRPPRLPRPRPRPFSWPRP,-0.00262
23,RRIRSRPPRLPRPRPRPDSKPRP,1.02
24,RRIRYRPPRLPRPRPRPVRQPRP,0.132
25,RRIRTRPPRLPRPRPRPDNLPRP,-0.479

row,Sequence,shrunken log2 fold change
1,RRIRSRPPRLPRPRPRPQQFPRP,-0.123
2,RRIRCRPPRLPRPRPRPWADPRP,-0.0237
3,RRIRDRPPRLPRPRPRPIHMPRP,0.0641
4,RRIRYRPPRLPRPRPRPGSQPRP,0.0113
5,RRIRPRPPRLPRPRPRPLEHPRP,-0.565
6,RRIRNRPPRLPRPRPRPFECPRP,-0.000687
7,RRIRIRPPRLPRPRPRPCLHPRP,-0.174
8,RRIRPRPPRLPRPRPRPVIQPRP,-0.203
9,RRIRLRPPRLPRPRPRPNPGPRP,-0.213
10,RRIRNRPPRLPRPRPRPVLSPRP,0.0114
11,RRIRNRPPRLPRPRPRPYLYPRP,-0.317
12,RRIRTRPPRLPRPRPRPRQGPRP,0.337
13,RRIRWRPPRLPRPRPRPYIYPRP,-0.541
14,RRIRKRPPRLPRPRPRPPSSPRP,0.263
15,RRIRSRPPRLPRPRPRPWQPPRP,0.155
16,RRIRTRPPRLPRPRPRPESQPRP,-0.0324
17,RRIRNRPPRLPRPRPRPVWDPRP,0.325
18,RRIRFRPPRLPRPRPRPPREPRP,0.43
19,RRIRARPPRLPRPRPRPTDSPRP,0.00832
20,RRIRERPPRLPRPRPRPETIPRP,-0.0222
21,RRIRYRPPRLPRPRPRPKMKPRP,-0.404
22,RRIRWRPPRLPRPRPRPGLNPRP,0.0915
23,RRIRQRPPRLPRPRPRPLFGPRP,0.107
24,RRIRYRPPRLPRPRPRPQNMPRP,-1.33
25,RRIRVRPPRLPRPRPRPMKGPRP,-0.01

row,Sequence,shrunken log2 fold change
1,RRIRERPPRLPRPRPRPADRPRP,-0.173
2,RRIRIRPPRLPRPRPRPLTPPRP,-0.284
3,RRIRERPPRLPRPRPRPADCPRP,0.0519
4,RRIRFRPPRLPRPRPRPAWAPRP,0.953
5,RRIRERPPRLPRPRPRPNEAPRP,-0.0218
6,RRIRIRPPRLPRPRPRPPGLPRP,0.204
7,RRIRMRPPRLPRPRPRPEDSPRP,0.0648
8,RRIRTRPPRLPRPRPRPTCDPRP,0.0699
9,RRIRYRPPRLPRPRPRPEWDPRP,-0.0176
10,RRIRIRPPRLPRPRPRPECRPRP,0.0513
11,RRIRHRPPRLPRPRPRPAAPPRP,0.093
12,RRIRLRPPRLPRPRPRPKQKPRP,0.0979
13,RRIRTRPPRLPRPRPRPYSEPRP,-0.212
14,RRIRHRPPRLPRPRPRPAIWPRP,0.137
15,RRIRGRPPRLPRPRPRPKSYPRP,0.685
16,RRIRTRPPRLPRPRPRPGQSPRP,-0.267
17,RRIRSRPPRLPRPRPRPTGHPRP,-0.0852
18,RRIRRRPPRLPRPRPRPVMVPRP,-0.153
19,RRIRVRPPRLPRPRPRPWPSPRP,0.143
20,RRIRTRPPRLPRPRPRPCRFPRP,-0.265
21,RRIRYRPPRLPRPRPRPNILPRP,-1.9
22,RRIRDRPPRLPRPRPRPSCRPRP,-0.0363
23,RRIRARPPRLPRPRPRPFHIPRP,-0.906
24,RRIRRRPPRLPRPRPRPVLRPRP,1.11
25,RRIRVRPPRLPRPRPRPSFEPRP,-0.214

row,Sequence,shrunken log2 fold change
1,RRIRTRPPRLPRPRPRPIKYPRP,4.24
2,RRIRIRPPRLPRPRPRPPKEPRP,-0.0998
3,RRIRIRPPRLPRPRPRPCAWPRP,-0.0154
4,RRIRNRPPRLPRPRPRPGDYPRP,0.0582
5,RRIRIRPPRLPRPRPRPEIPPRP,-0.0249
6,RRIRARPPRLPRPRPRPRRCPRP,0.519
7,RRIRCRPPRLPRPRPRPPHQPRP,0.746
8,RRIRQRPPRLPRPRPRPLIGPRP,-0.285
9,RRIRIRPPRLPRPRPRPRWAPRP,0.0908
10,RRIRKRPPRLPRPRPRPQHGPRP,0.205
11,RRIRWRPPRLPRPRPRPCNEPRP,-0.409
12,RRIRRRPPRLPRPRPRPKDKPRP,0.239
13,RRIRHRPPRLPRPRPRPHTNPRP,-0.672
14,RRIRMRPPRLPRPRPRPDKAPRP,-0.041
15,RRIRFRPPRLPRPRPRPHWSPRP,-0.54
16,RRIRDRPPRLPRPRPRPDCNPRP,0.685
17,RRIRQRPPRLPRPRPRPSQEPRP,0.0169
18,RRIRKRPPRLPRPRPRPTIYPRP,-0.0381
19,RRIRRRPPRLPRPRPRPSWQPRP,0.133
20,RRIRNRPPRLPRPRPRPGVQPRP,0.444
21,RRIRLRPPRLPRPRPRPENVPRP,-0.0483
22,RRIRWRPPRLPRPRPRPPMHPRP,0.429
23,RRIRHRPPRLPRPRPRPMSPPRP,0.0565
24,RRIRVRPPRLPRPRPRPCQDPRP,-0.336
25,RRIRHRPPRLPRPRPRPSRFPRP,0.0223

row,Sequence,shrunken log2 fold change
1,RRIRWRPPRLPRPRPRPMCEPRP,-0.0562
2,RRIRARPPRLPRPRPRPGDYPRP,0.226
3,RRIRSRPPRLPRPRPRPVMCPRP,-0.173
4,RRIRMRPPRLPRPRPRPTSAPRP,0.74
5,RRIRHRPPRLPRPRPRPQGWPRP,0.0705
6,RRIRWRPPRLPRPRPRPVAEPRP,1.41
7,RRIRQRPPRLPRPRPRPPMCPRP,-0.213
8,RRIRSRPPRLPRPRPRPTYYPRP,-0.42
9,RRIRARPPRLPRPRPRPKCSPRP,0.0215
10,RRIRARPPRLPRPRPRPNDNPRP,-0.344
11,RRIRYRPPRLPRPRPRPIHPPRP,-0.418
12,RRIRQRPPRLPRPRPRPLRQPRP,0.0855
13,RRIRVRPPRLPRPRPRPFSTPRP,-0.496
14,RRIRTRPPRLPRPRPRPVVKPRP,-0.189
15,RRIRTRPPRLPRPRPRPQIIPRP,-0.358
16,RRIRKRPPRLPRPRPRPQCEPRP,-0.0553
17,RRIRERPPRLPRPRPRPLASPRP,0.16
18,RRIRKRPPRLPRPRPRPSDGPRP,0.178
19,RRIRGRPPRLPRPRPRPKEVPRP,0.00437
20,RRIRIRPPRLPRPRPRPNERPRP,-0.319
21,RRIRQRPPRLPRPRPRPIHFPRP,-0.236
22,RRIRPRPPRLPRPRPRPPSNPRP,-0.0339
23,RRIRERPPRLPRPRPRPPWNPRP,-0.246
24,RRIRMRPPRLPRPRPRPTWQPRP,0.288
25,RRIRTRPPRLPRPRPRPMYVPRP,0.0319
